From PMC9600955 come the findings set out here.

The test deals with LapD2 purified in isolation (Streptococcus intermedius GC1825). As to the kind of experiment: crystal structure; LapD2 at 10 mg/mL, hanging drop, 0.2 M lithium sulfate, 0.1 M Tris-HCl pH 8.0, 30% PEG 4000; SAD phasing, native data to 2.20 Å.

As to “LapD2 purified in isolation (natural protein)”, the stoichiometry N – broadly, a count of units in the complex or per binding partner – amounted to 2.
